Data as given in publication PMC4456239.
Like-named read-outs stand apart in the source and are kept apart here. *: point of attachment. X2 = 4‑((4-methylpiperazin-1-yl)methyl)benzoic acid, CN1CCN(Cc2ccc(C(=O)*)cc2)CC1

Tests used:
Test in all cases: other fluorescence titration
[1] = molecular target: recombinant His-tagged human cyclin A2 (sequence 174-432) (human) (UniProt P20248)
[2] = molecular target: recombinant His-tagged human cyclin A2 (sequence 174-432) (human) (UniProt P20248); remark: listed apart in the source
[3] = molecular target: recombinant His-tagged human cyclin A2 (sequence 174-432) (human) (UniProt P20248); remark: listed apart in the source
[4] = molecular target: recombinant His-tagged human cyclin A2 (sequence 174-432) (human) (UniProt P20248); remark: listed apart in the source
[5] = molecular target: recombinant His-tagged human cyclin A2 (sequence 174-432) (human) (UniProt P20248); remark: listed apart in the source
[6] = molecular target: recombinant His-tagged human cyclin A2 (sequence 174-432) (human) (UniProt P20248); remark: listed apart in the source
[7] = molecular target: recombinant His-tagged human cyclin A2 (sequence 174-432) (human) (UniProt P20248); remark: listed apart in the source

Chain of UniProt P20248 (P20248 174-432): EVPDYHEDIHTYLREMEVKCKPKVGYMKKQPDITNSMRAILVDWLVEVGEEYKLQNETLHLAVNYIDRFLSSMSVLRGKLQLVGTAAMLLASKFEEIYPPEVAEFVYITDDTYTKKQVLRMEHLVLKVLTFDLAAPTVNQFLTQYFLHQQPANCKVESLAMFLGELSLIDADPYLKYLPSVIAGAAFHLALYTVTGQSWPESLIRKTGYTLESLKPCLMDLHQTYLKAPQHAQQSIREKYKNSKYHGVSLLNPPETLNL

Kd [1]: 3.21 µM
Kd [2]: 5.28 µM
Kd [3]: 3.55 µM
Kd [4]: 4.77 µM
Kd [5]: 6.59 µM
Kd [6]: 6.77 µM
Kd [7]: 5.44 µM
Binder: X2-RLIF-NH2 [SCCP5921: 4-((4-methylpiperazin-1-yl)methyl)benzoic acid ligated to the p21 C-terminus, RLIF]
